This note sets out measurements from the supplement of paper PMC9112550, “Optimization of the antimicrobial peptide Bac7 by deep mutational scanning” (BMC Biology, 2022).

This data set has as its system Escherichia coli TOP10. Put plainly: shrunken log2 fold change of peptide-encoding DNA abundance (4.5 h post-induction vs induction); higher = less antimicrobial activity (less host growth inhibition). The following applies: time post-induction: 4.5 h; library: site-saturation at positions 5, 18, 19, 20.
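Note: peptides expressed intracellularly from a pBAD plasmid library in pooled LB shake-flask culture, induced with 0.3% L-arabinose, DNA abundance read by NGS, three biological replicates, DESeq2 with apeglm shrinkage.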

As to RRIRQRPPRLPRPRPRPWGLPRP, the “shrunken log2 fold change” value is 0.211.
With RRIRPRPPRLPRPRPRPYNHPRP the figure was -1.2.
The same measure for RRIRERPPRLPRPRPRPVGPPRP: -0.0231; for RRIRLRPPRLPRPRPRPEVGPRP: -0.0231; for RRIRKRPPRLPRPRPRPSADPRP: 0.027.
The same measure for RRIRYRPPRLPRPRPRPFWMPRP: -0.297; for RRIRDRPPRLPRPRPRPTGSPRP: 0.0325; for RRIRDRPPRLPRPRPRPTFYPRP: -0.286.
For the sequence RRIRARPPRLPRPRPRPSCSPRP, the “shrunken log2 fold change” value worked out at 0.0274.
With RRIRPRPPRLPRPRPRPFDTPRP the figure was -0.126; with RRIRNRPPRLPRPRPRPPMGPRP, -0.0346.
The same measure for RRIRFRPPRLPRPRPRPKTMPRP: -0.197; for RRIRWRPPRLPRPRPRPVSLPRP: 0.15.
With RRIRCRPPRLPRPRPRPYHKPRP the figure was -0.743; with RRIRNRPPRLPRPRPRPGDLPRP, 0.107; with RRIRERPPRLPRPRPRPCPEPRP, -0.324.
Regarding RRIRQRPPRLPRPRPRPGVMPRP, the “shrunken log2 fold change” value was -0.0819.
With RRIRDRPPRLPRPRPRPNVHPRP the figure was -0.303; with RRIRTRPPRLPRPRPRPLQDPRP, 0.00698.
The same measure for RRIRWRPPRLPRPRPRPQEWPRP: 0.248.
Take RRIRERPPRLPRPRPRPNQEPRP: the “shrunken log2 fold change” value was determined as 0.0174.
The same measure for RRIRYRPPRLPRPRPRPVNSPRP: -0.0185; for RRIRGRPPRLPRPRPRPFYDPRP: 0.0844.
Take RRIRWRPPRLPRPRPRPNDGPRP: the “shrunken log2 fold change” value was -0.00211.
Turning to RRIRQRPPRLPRPRPRPFDVPRP, the “shrunken log2 fold change” value was 0.028.
With RRIRYRPPRLPRPRPRPEYQPRP the figure was -0.00141.
With RRIRTRPPRLPRPRPRPNLAPRP the figure was 0.0471.
The same measure for RRIRLRPPRLPRPRPRPFYLPRP: -0.572; for RRIRCRPPRLPRPRPRPNVYPRP: -0.53; for RRIRYRPPRLPRPRPRPAQDPRP: 0.188.
RRIRRRPPRLPRPRPRPRPSPRP: the “shrunken log2 fold change” value worked out at 0.781.
RRIRRRPPRLPRPRPRPLIPPRP: the “shrunken log2 fold change” value is -0.0124.
The same measure for RRIRIRPPRLPRPRPRPDFTPRP: -0.355; for RRIRCRPPRLPRPRPRPWQPPRP: 0.0636.
Turning to RRIRKRPPRLPRPRPRPGPYPRP, the “shrunken log2 fold change” value turned out to be 0.104.
With RRIRQRPPRLPRPRPRPHRWPRP the figure was 0.057.
The same measure for RRIRNRPPRLPRPRPRPEGSPRP: -0.0385; for RRIRIRPPRLPRPRPRPSYTPRP: -1.06.
The same measure for RRIRRRPPRLPRPRPRPFDGPRP: 0.079.
For RRIRTRPPRLPRPRPRPARPPRP, the “shrunken log2 fold change” value turned out to be 0.883.
RRIRTRPPRLPRPRPRPCLRPRP: the “shrunken log2 fold change” value turned out to be 0.0877.
For the sequence RRIRLRPPRLPRPRPRPSGIPRP, the “shrunken log2 fold change” value is -0.267.
The same measure for RRIRLRPPRLPRPRPRPKFPPRP: -0.26; for RRIRKRPPRLPRPRPRPMTGPRP: 0.0188; for RRIRIRPPRLPRPRPRPLLAPRP: 0.185.
With RRIRRRPPRLPRPRPRPLTLPRP the figure was -0.142; with RRIRDRPPRLPRPRPRPWYAPRP, 0.00564.
With RRIRRRPPRLPRPRPRPKAKPRP the figure was 0.0788; with RRIRSRPPRLPRPRPRPFKHPRP, -0.195.
RRIRQRPPRLPRPRPRPLYPPRP: the “shrunken log2 fold change” value is -0.228.
